# B1: GLT8D2 (parent)
# chain: QEAKLLHWNGRHKPWDFPSVHNDL
# B2: DVL3 (parent)
# chain: FPELGYSYGGGSASSQHSEGSRSS
# Variants of: B1
# Assay: protein stability index of a GFP-peptide fusion (GPS, HEK-293T) (PSI 1-6); higher = more stable
# Conditions: c terminus: a fixed tail appended
# 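Also: lentivirally expressed fusions sorted by FACS into six bins by GFP to DsRed ratio, PSI derived from sequencing read proportions per bin multiplied by bin number.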
row,Variant,protein stability index
1,QQAKLLHWNGRHKPWDFPSVHNDL [E2Q],2.85
2,QAAKLLHWNGRHKPWDFPSVHNDL [E2A],1.89
3,QCAKLLHWNGRHKPWDFPSVHNDL [E2C],1.97
4,QKAKLLHWNGRHKPWDFPSVHNDL [E2K],2.18
5,QPAKLLHWNGRHKPWDFPSVHNDL [E2P],2.58
6,QFAKLLHWNGRHKPWDFPSVHNDL [E2F],1.58
7,QYAKLLHWNGRHKPWDFPSVHNDL [E2Y],2.04
8,QNAKLLHWNGRHKPWDFPSVHNDL [E2N],2.48
9,QTAKLLHWNGRHKPWDFPSVHNDL [E2T],2.18
10,QGAKLLHWNGRHKPWDFPSVHNDL [E2G],2.39
11,QRAKLLHWNGRHKPWDFPSVHNDL [E2R],2.17
12,QHAKLLHWNGRHKPWDFPSVHNDL [E2H],2.21
13,QMAKLLHWNGRHKPWDFPSVHNDL [E2M],1.45
14,QIAKLLHWNGRHKPWDFPSVHNDL [E2I],1.78
15,QSAKLLHWNGRHKPWDFPSVHNDL [E2S],2.04
16,QWAKLLHWNGRHKPWDFPSVHNDL [E2W],2.2
17,QDAKLLHWNGRHKPWDFPSVHNDL [E2D],2.65
18,QLAKLLHWNGRHKPWDFPSVHNDL [E2L],1.96
19,QVAKLLHWNGRHKPWDFPSVHNDL [E2V],1.89
20,PEAKLLHWNGRHKPWDFPSVHNDL [Q1P],2.85
21,YEAKLLHWNGRHKPWDFPSVHNDL [Q1Y],1.79

row,Variant,protein stability index
1,KEAKLLHWNGRHKPWDFPSVHNDL [Q1K],2.49
2,VEAKLLHWNGRHKPWDFPSVHNDL [Q1V],2
3,CEAKLLHWNGRHKPWDFPSVHNDL [Q1C],1.75
4,MEAKLLHWNGRHKPWDFPSVHNDL [Q1M],2.35
5,REAKLLHWNGRHKPWDFPSVHNDL [Q1R],2.48
6,LEAKLLHWNGRHKPWDFPSVHNDL [Q1L],2.1
7,HEAKLLHWNGRHKPWDFPSVHNDL [Q1H],2.35
8,GEAKLLHWNGRHKPWDFPSVHNDL [Q1G],2.65
9,WEAKLLHWNGRHKPWDFPSVHNDL [Q1W],2.21
10,NEAKLLHWNGRHKPWDFPSVHNDL [Q1N],2.84
11,DEAKLLHWNGRHKPWDFPSVHNDL [Q1D],3.54
12,TEAKLLHWNGRHKPWDFPSVHNDL [Q1T],2.49
13,SEAKLLHWNGRHKPWDFPSVHNDL [Q1S],2.51
14,AEAKLLHWNGRHKPWDFPSVHNDL [Q1A],2.68
15,EEAKLLHWNGRHKPWDFPSVHNDL [Q1E],3.02
16,FEAKLLHWNGRHKPWDFPSVHNDL [Q1F],1.65
17,IEAKLLHWNGRHKPWDFPSVHNDL [Q1I],1.69
18,QECKLLHWNGRHKPWDFPSVHNDL [A3C],2.23
19,QEFKLLHWNGRHKPWDFPSVHNDL [A3F],2.25
20,QEDKLLHWNGRHKPWDFPSVHNDL [A3D],3.47
21,QEEKLLHWNGRHKPWDFPSVHNDL [A3E],3.51

# Variants of: B2
# Assay: as above
# Conditions: c terminus: a fixed tail appended
row,Variant,protein stability index
1,FPELGYSYGGGSASSQHSEPSRSS [G20P],2.94
2,FPELGYSYGGGSASSQHSERSRSS [G20R],3.15
3,FPELGYSYGGGSASSQHSEMSRSS [G20M],2.48
4,FPELGYSYGGGSASSQHSECSRSS [G20C],2.99
5,FPELGYSYGGGSASSQHSEKSRSS [G20K],3.06
6,FPELGYSYGGGSASSQHSEFSRSS [G20F],2.63
7,FPELGYSYGGGSASSQHSEISRSS [G20I],2.73
8,FPELGYSYGGGSASSQHSEYSRSS [G20Y],2.64
9,FPELGYSYGGGSASSQHSETSRSS [G20T],3.42
10,FPELGYSYGGGSASSQHSEVSRSS [G20V],2.75
11,FPELGYSYGGGSASSQHSEQSRSS [G20Q],3.27
12,FPELGYSYGGGSASSQHSENSRSS [G20N],3.43
13,FPELGYSYGGGSASSQHSEASRSS [G20A],2.52
14,FPELGYSYGGGSASSQHSELSRSS [G20L],2.5
15,FPELGYSYGGGSASSQHSEWSRSS [G20W],2.32
16,FPELGYSYGGGSASSQHSEDSRSS [G20D],3.7
17,FPELGYSYGGGSASSQHSEESRSS [G20E],3.52
18,FPELGYSYGGGSASSQHSESSRSS [G20S],3.18
19,FPELGYSYGGGSASSQHSEHSRSS [G20H],2.9
20,FPELGYSYGGGSASSQPSEGSRSS [H17P],3.35
21,FPELGYSYGGGSASSQWSEGSRSS [H17W],2.77
22,FPELGYSYGGGSASSQLSEGSRSS [H17L],2.77
23,FPELGYSYGGGSASSQSSEGSRSS [H17S],2.8
24,FPELGYSYGGGSASSQNSEGSRSS [H17N],3.31
25,FPELGYSYGGGSASSQISEGSRSS [H17I],2.74
26,FPELGYSYGGGSASSQQSEGSRSS [H17Q],2.83

row,Variant,protein stability index
1,FPELGYSYGGGSASSQKSEGSRSS [H17K],3.12
2,FPELGYSYGGGSASSQYSEGSRSS [H17Y],2.45
3,FPELGYSYGGGSASSQRSEGSRSS [H17R],2.61
4,FPELGYSYGGGSASSQTSEGSRSS [H17T],3.12
5,FPELGYSYGGGSASSQVSEGSRSS [H17V],3.22
6,FPELGYSYGGGSASSQMSEGSRSS [H17M],2.62
7,FPELGYSYGGGSASSQHSRGSRSS [E19R],2.85
8,FPELGYSYGGGSASSQHSPGSRSS [E19P],3.15
9,FPELGYSYGGGSASSQHSLGSRSS [E19L],2.06
10,FPELGYSYGGGSASSQHSCGSRSS [E19C],2.39
11,FPELGYSYGGGSASSQHSVGSRSS [E19V],2.52
12,FPELGYSYGGGSASSQHSAGSRSS [E19A],2.99
13,FPELGYSYGGGSASSQHSFGSRSS [E19F],3.64
14,FPELGYSYGGGSASSQHSHGSRSS [E19H],2.38
15,FPELGYSYGGGSASSQHSKGSRSS [E19K],2.89
16,FPELGYSYGGGSASSQHSGGSRSS [E19G],2.87
17,FPELGYSYGGGSASSQHSYGSRSS [E19Y],2.41
18,FPELGYSYGGGSASSQHSSGSRSS [E19S],3.16
19,FPELGYSYGGGSASSQHSIGSRSS [E19I],2.94
20,FPELGYSYGGGSASSQHSQGSRSS [E19Q],2.66
21,FPELGYSYGGGSASSQHSWGSRSS [E19W],1.81
22,FPELGYSYGGGSASSQHSMGSRSS [E19M],3.12
23,FPELGYSYGGGSASSQHSNGSRSS [E19N],2.59
24,FPELGYSYGGGSASSQHSTGSRSS [E19T],3.24
25,FPELGYSYGGGSASSQHSDGSRSS [E19D],3.64
26,FPELGYSYGGGSASSQHKEGSRSS [S18K],2.98

# Source: the supplement of paper PMC10567573
